From article PMC11649247 come the findings set out here.

This test deals with Mycobacterium tuberculosis polyketide synthase 13 (Mt-Pks13) (Mycobacterium tuberculosis) (UniProt I6X8D2). In words: AUC; sedimentation velocity at pH 6 (of a series from pH 6 to 8); triple buffer (20 mM each sodium acetate, Tris/HCl, CHES), 150 mM NaCl, 2.5 mM βME; 30 000 r.p.m.; 4 °C or 20 °C; dimer to monomers.

What is called stoichiometry N is a count of units in the complex or per binding partner. Turning to “Mycobacterium tuberculosis polyketide synthase 13 (Mt-Pks13) (from UniProt I6X8D2 1-1733) (enzyme)”, the stoichiometry N is 2.
